Data: publication PMC2731897

Biological target: T1, Mycobacterium tuberculosis GroEL1 (Rv3417c) without (His)6 tag (Mycobacterium tuberculosis), P9WPE9
T1 chain: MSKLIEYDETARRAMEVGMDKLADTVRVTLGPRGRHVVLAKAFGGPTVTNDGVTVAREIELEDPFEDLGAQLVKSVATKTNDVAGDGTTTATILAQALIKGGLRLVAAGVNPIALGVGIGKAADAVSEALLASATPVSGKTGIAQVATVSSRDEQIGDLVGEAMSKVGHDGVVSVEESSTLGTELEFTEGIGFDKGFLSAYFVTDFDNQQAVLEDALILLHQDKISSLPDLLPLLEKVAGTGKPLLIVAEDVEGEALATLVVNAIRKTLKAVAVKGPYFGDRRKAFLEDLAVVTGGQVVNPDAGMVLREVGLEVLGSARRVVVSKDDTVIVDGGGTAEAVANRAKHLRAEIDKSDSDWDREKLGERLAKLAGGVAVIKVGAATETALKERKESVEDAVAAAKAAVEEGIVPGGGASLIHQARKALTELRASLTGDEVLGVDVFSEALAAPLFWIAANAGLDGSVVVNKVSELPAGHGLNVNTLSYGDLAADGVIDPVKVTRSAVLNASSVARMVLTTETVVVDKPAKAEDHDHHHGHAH
Assay: SEC
Conditions: remark: other sources report otherwise

B1: Mycobacterium tuberculosis GroEL1 (Rv3417c) without (His)6 tag, P9WPE9 1-539 (natural protein)
chain: T1 chain
stoichiometry N: 2
